From patent US20160153020A1 (GLYCOTREK, published 2016) come the findings set out here.

For this experiment, the target named is T1, DC-SIGN (human lectin receptor) expressed on a recombinant HEK cell line (human, UniProt Q9NNX6 1-404).
T1 construct: whole, on cells; The construct in the HEK cell line is not described
T1 sequence (looked up): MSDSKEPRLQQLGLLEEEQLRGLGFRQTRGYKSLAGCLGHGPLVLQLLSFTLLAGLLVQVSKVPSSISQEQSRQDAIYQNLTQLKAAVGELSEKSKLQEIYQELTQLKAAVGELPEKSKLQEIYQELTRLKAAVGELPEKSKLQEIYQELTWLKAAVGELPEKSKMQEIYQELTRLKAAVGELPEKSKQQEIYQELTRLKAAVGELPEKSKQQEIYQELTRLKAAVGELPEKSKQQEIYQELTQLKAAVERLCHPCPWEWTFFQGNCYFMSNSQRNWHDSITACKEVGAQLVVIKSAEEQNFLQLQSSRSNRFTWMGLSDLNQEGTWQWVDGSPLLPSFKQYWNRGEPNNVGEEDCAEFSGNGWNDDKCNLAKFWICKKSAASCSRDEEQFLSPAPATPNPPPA
The experiment in a line: binding to recombinant HEK cells expressing DC-SIGN (method not described).

B1: infliximab produced in CHO cell lines (antibody, V domains shown)
VH: EVKLEESGGGLVQPGGSMKLSCVASGFIFSNHWMNWVRQSPEKGLEWVAEIRSKSINSATHYAESVKGRFTISRDDSKSAVYLQMTDLRTEDTGVYYCSRNYYGSTYDYWGQGTTLTVSA
VL: DILLTQSPAILSVSPGERVSFSCRASQFVGSSIHWYQQRTNGSPRLLIKYASESMSGIPSRFSGSGSGTDFTLSINTVESEDIADYYCQQSHSWPFTFGSGTNLEVKR
modifications: single N-glycosylation site at position Asn297 ; chain 1 pos 300: Asn297 (EU) carries the single N-glycan; the glycoform depends on the CHO line (Inf or Inf-Sial)
Consider B1, for which the binding result is reported as “no binding”.
